Assay [1] has as its target T1, HLA-A2 (HLA-A*0201) (human).
T1 construct: MHC class I molecule to which the peptide is added in the assembly assay (T2 cells); folded molecules are immunoprecipitated with conformation-dependent antibody
Description: assembly assay: HLA stabilisation, TAP-deficient cell lysate, W6/32 IP, IEF gel.

The target in another assay is HLA-A1 (HLA-A*0101) (human). Described as above.
The target in a further assay is HLA-A3 (HLA-A*0301) (human). Described as above.
The next assay deals with HLA-A11 (HLA-A*1101) (human). The assay is described as above.
Assay [2] addresses T1, HLA-A2 (HLA-A*0201). The assay is described as follows: assembly assay: HLA-A2 stabilisation, T2 cells, IP, IEF gel.
The next assay concerns the target HLA-B35 (human). Description: assembly assay: HLA-B35 stabilisation, T2-B35 lysate, W6/32 IP, IEF gel.

With LAQCFFCFKEL [Sur54-64], in the assay with HLA-A2 (HLA-A*0201) [1], the binding result is “no binding (tested: 100, 10, 1, 0.1, 0.01 µM)”.
For the molecule LKDHRISTF [Sur14-22], in the assay with HLA-A1 (HLA-A*0101), the binding result is given as “no binding (tested: 40, 4, 0.4, 0.04 µM)”.
Same read-out and setting: then LKDHRISTY (Sur14-22 with Y at the C-terminus) [sur14Y9], with “no binding (tested: 40, 4, 0.4, 0.04 µM)”.
In the case of DLAQCFFCFK (also called Survivin53-62) [Sur 53-62], the C50 with HLA-A3 (HLA-A*0301) is 100 µM; with HLA-A11 (HLA-A*1101) it was 5 µM.
As to ETAKKVRRAI [Sur10 (Survivin126-135)], the binding result in the assay with HLA-A2 (HLA-A*0201) [2] was “no binding”.
In the case of MAEAGFIHY (Sur38-46 with C changed to Y at P9) [Sur38Y9], the C50 in the assay with HLA-A1 (HLA-A*0101) amounted to 0.8 µM.
Consider MAEAGFIHC (also called Survivin38-46) [Sur38-46], for which the binding result in the assay with HLA-A1 (HLA-A*0101) is “no binding (tested: 40, 4, 0.4, 0.04 µM)”.
With FLKLDRERAK [Sur 101-110], the binding result with HLA-A3 (HLA-A*0301) was “no binding (tested: 100, 10, 1, 0.1, 0.01 µM)”; with HLA-A11 (HLA-A*1101), “no binding (tested: 40, 4, 0.4, 0.04 µM)”.
PTENEPDLAY (Sur47-56 with Q changed to Y at P10) [Sur47Y10] displayed a C50 in the assay with HLA-A1 (HLA-A*0101) of 0.4 µM.
For PTENEPDLAQ (also called Survivin47-56) [Sur47-56], the binding result with HLA-A1 (HLA-A*0101) is “no binding (tested: 40, 4, 0.4, 0.04 µM)”.
Turning to TIRRKNLRK [SurEx3-A3-1], in the assay with HLA-A3 (HLA-A*0301), the C50 was 0.5 µM.
Consider KIAKETNNKK [Sur 112-121], for which the C50 was 1 µM with HLA-A3 (HLA-A*0301) and > 100 µM in the assay with HLA-A11 (HLA-A*1101).
Consider PTIRRKNLRK [SurEx3-A3-2], for which the binding result with HLA-A3 (HLA-A*0301) is listed as “no binding (tested: 100, 10, 1, 0.1, 0.01 µM)”.
In the case of RAIEQLAAM [Sur2 (Survivin133-141)], in the assay with HLA-A2 (HLA-A*0201) [2], the binding result is reported as “no binding”.
In the case of FEELTLGEF (also called Survivin93-101) [Sur93-101], the C50 in the assay with HLA-A1 (HLA-A*0101) is > 100 µM.
As to FTELTLGEF (Sur93-101 with T at position 2) [Sur93T2], the C50 with HLA-A1 (HLA-A*0101) was 1 µM.
Turning to FEELTLGEY (Sur93-101 with Y at the C-terminus) [sur93Y9], the binding result with HLA-A1 (HLA-A*0101) is given as “no binding (tested: 40, 4, 0.4, 0.04 µM)”.
In turn, FSELTLGEF (Sur93-101 with S at position 2) [Sur93S2] came in with a C50 with HLA-A1 (HLA-A*0101) of 30 µM.
As for ELTLGEFLKL (also called Sur95-104) [Sur9 (Survivin95-104)], the C50 with HLA-A2 (HLA-A*0201) [2] was 10 µM.

B1: Sur113L2 (peptide)
peptide: ILKETNNKKK
notes: Sur113-122 with A at position 2 replaced by L
Turning to B1, the C50 in the assay with HLA-A3 (HLA-A*0301) is > 100 µM.
As for IAKETNNKKK [Sur 113-122], the binding result in the assay with HLA-A3 (HLA-A*0301) is recorded as “no binding (tested: 100, 10, 1, 0.1, 0.01 µM)”; with HLA-A11 (HLA-A*1101), “no binding (tested: 40, 4, 0.4, 0.04 µM)”.
The molecule RISTFKNWPK (Sur18-27 with F changed to K at P10) [Sur18K10] yielded a C50 with HLA-A3 (HLA-A*0301) of 0.02 µM.
RISTFKNWPF (also called Survivin18-27) [Sur 18-27]: the binding result with HLA-A3 (HLA-A*0301) is “no binding (tested: 100, 10, 1, 0.1, 0.01 µM)”; with HLA-A11 (HLA-A*1101), “no binding (tested: 40, 4, 0.4, 0.04 µM)”.
CPTENEPDL [Sur46-54 (Survivin46-54)] gave a C50 with HLA-B35 of 20 µM.
In the case of RITREEHKK [Sur2b-A3-1], in the assay with HLA-A3 (HLA-A*0301), the binding result is on record as “no binding (tested: 100, 10, 1, 0.1, 0.01 µM)”.
For KVRRAIEQL [Sur3 (Survivin130-138)], the C50 in the assay with HLA-A2 (HLA-A*0201) [2] is > 100 µM.
Same read-out and setting: the result for FLKLDRERA [Sur6 (Survivin101-109)] reads 30 µM.
Turning to LPPAWQPFL [Sur6-14 (Survivin6-14)], in the assay with HLA-B35, the C50 is > 100 µM.
For KLDRERAKNKI [Sur103-113], the binding result with HLA-A2 (HLA-A*0201) [1] is listed as “no binding (tested: 100, 10, 1, 0.1, 0.01 µM)”.

B2: Sur13K9 (peptide)
peptide: FLKDHRISTK
notes: Sur13-22 with the C-terminal F replaced by K
Take B2: the binding result in the assay with HLA-A3 (HLA-A*0301) is listed as “no binding (tested: 100, 10, 1, 0.1, 0.01 µM)”.
As to SVKKQFEELTL [Sur88-98], the binding result with HLA-A2 (HLA-A*0201) [1] was “no binding (tested: 100, 10, 1, 0.1, 0.01 µM)”.
Consider TPERMAEAGF (also called sur34-46 (as printed once)) [Sur34-43 (Survivin34-43)], for which, in the assay with HLA-A1 (HLA-A*0101), the binding result was “no binding (tested: 40, 4, 0.4, 0.04 µM)”. Further, the C50 in the assay with HLA-B35 was > 100 µM.
On to TPERMAEAGY (Sur34-43 with Y at the C-terminus) [sur34Y9], for which, in the assay with HLA-A1 (HLA-A*0101), the binding result is given as “no binding (tested: 40, 4, 0.4, 0.04 µM)”.
The same measure, in the same setting: then ENEPDLAQCF [Sur49-58], with “no binding (tested: 40, 4, 0.4, 0.04 µM)”; and ENEPDLAQCY (Sur49-58 with Y at the C-terminus) [sur49Y9], with “no binding (tested: 40, 4, 0.4, 0.04 µM)”.
On to CAFLSVKKQF [Sur 84-93], for which the binding result was “no binding (tested: 100, 10, 1, 0.1, 0.01 µM)” in the assay with HLA-A3 (HLA-A*0301) and “no binding (tested: 40, 4, 0.4, 0.04 µM)” with HLA-A11 (HLA-A*1101).
Turning to TAKKVRRAI [Sur7 (Survivin127-135)], the binding result in the assay with HLA-A2 (HLA-A*0201) [2] was “no binding”.
Still for that read-out and setting: the result for SVKKQFEEL [Sur5 (Survivin88-96)] reads “no binding”.
In the case of ELTLGEFLK [Sur 95-103], the C50 with HLA-A3 (HLA-A*0301) was > 100 µM. Moreover, the binding result with HLA-A11 (HLA-A*1101) is reported as “no binding (tested: 40, 4, 0.4, 0.04 µM)”.
Regarding EPDLAQCFF [Sur51-59 (Survivin51-59)], in the assay with HLA-A1 (HLA-A*0101), the binding result is “no binding (tested: 40, 4, 0.4, 0.04 µM)”. Also, the C50 in the assay with HLA-B35 stood at 13 µM.
LTLGEFLKL (also called Sur96-104) [Sur1 (Survivin96-104)]: the C50 in the assay with HLA-A2 (HLA-A*0201) [2] is > 100 µM.

B3: Sur1L2 (peptide)
peptide: LLLGEFLKL
notes: Analogue of survivin96-104 (Sur1) with T at position 2 replaced by L
In the case of B3, the C50 with HLA-A2 (HLA-A*0201) [2] was 1 µM.

B4: Sur1M2 (peptide)
peptide: LMLGEFLKL
notes: Analogue of survivin96-104 (Sur1) with T at position 2 replaced by M; also called modified survivin96-104
Regarding B4, in the assay with HLA-A2 (HLA-A*0201) [2], the C50 came to 1 µM.
Regarding KIAKETNNK [Sur 112-120], the C50 is 2 µM in the assay with HLA-A3 (HLA-A*0301) and 1 µM with HLA-A11 (HLA-A*1101).
For DLAQCFFCF [Sur 53-61], the binding result in the assay with HLA-A3 (HLA-A*0301) was “no binding (tested: 100, 10, 1, 0.1, 0.01 µM)”; with HLA-A11 (HLA-A*1101) it was “no binding (tested: 40, 4, 0.4, 0.04 µM)”.

B5: Sur53K9 (peptide)
peptide: DLAQCFFCK
notes: Sur53-61 with the C-terminal F replaced by K
Consider B5, for which, in the assay with HLA-A3 (HLA-A*0301), the binding result was “no binding (tested: 100, 10, 1, 0.1, 0.01 µM)”.
In turn, QFEELTLGEF (also called Survivin92-101) [Sur92-101] showed a C50 in the assay with HLA-A1 (HLA-A*0101) of 2 µM.
Still for that read-out and setting: the result for QSEELTLGEF (Sur92-101 with S at position 2) [Sur92S2] reads 100 µM.
The same measure, in the same setting: the result for QTEELTLGEF (Sur92-101 with T at position 2) [Sur92T2] reads 2 µM.
With QFEELTLGEY (Sur92-101 with Y at the C-terminus) [sur92Y9], the binding result in the assay with HLA-A1 (HLA-A*0101) was “no binding (tested: 40, 4, 0.4, 0.04 µM)”.
Consider TLPPAWQPFL [Sur8 (Survivin5-14)], for which the C50 with HLA-A2 (HLA-A*0201) [2] was 30 µM.

B6: Sur54L2 (peptide)
peptide: LLQCFFCFK
notes: Sur54-62 with A at position 2 replaced by L
As to B6, in the assay with HLA-A3 (HLA-A*0301), the C50 came to 1 µM.

B7: Sur5K9 (peptide)
peptide: TLPPAWQPK
notes: Sur5-13 with the C-terminal F replaced by K
In the assay with HLA-A3 (HLA-A*0301), B7 gave a C50 of 2 µM.
Consider PTLPPAWQPFL [Sur4-14], for which, in the assay with HLA-A2 (HLA-A*0201) [1], the binding result was “no binding (tested: 100, 10, 1, 0.1, 0.01 µM)”.
Take KLDRERAKNK [Sur 103-112]: the binding result in the assay with HLA-A3 (HLA-A*0301) is given as “no binding (tested: 100, 10, 1, 0.1, 0.01 µM)”; in the assay with HLA-A11 (HLA-A*1101), “no binding (tested: 40, 4, 0.4, 0.04 µM)”.

The record behind these values is patent publication USRE48522 (SURVAC, dated 2021).
